Laboratory results: doi:10.1101/2020.10.21.349639 (bioRxiv, 2020)

Biological target: T1, NorC (wild type) (Staphylococcus aureus subsp. aureus COL …)
T1 chain: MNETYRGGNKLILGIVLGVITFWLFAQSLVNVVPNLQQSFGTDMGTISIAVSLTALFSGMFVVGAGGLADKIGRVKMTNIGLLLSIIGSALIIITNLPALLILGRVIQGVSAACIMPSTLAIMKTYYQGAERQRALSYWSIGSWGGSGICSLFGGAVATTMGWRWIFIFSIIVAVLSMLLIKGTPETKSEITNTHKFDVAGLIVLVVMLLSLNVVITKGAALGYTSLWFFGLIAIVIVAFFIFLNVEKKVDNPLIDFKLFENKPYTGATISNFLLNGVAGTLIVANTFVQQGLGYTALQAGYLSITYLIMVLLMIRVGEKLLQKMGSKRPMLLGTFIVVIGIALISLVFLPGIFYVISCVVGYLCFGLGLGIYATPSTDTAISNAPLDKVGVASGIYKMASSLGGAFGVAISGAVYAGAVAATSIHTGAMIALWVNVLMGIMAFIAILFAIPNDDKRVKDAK
Assay: ITC

B1: single-domain Indian camelid antibody (ICab), Zn2+-bound (VHH)
VHH: QVQLEESGGGSVQAGGSLRLSCAASGYMYSTYSTYCMGWFRQAPGKEREGVAFIKRGDHSTYYTDSVKGRFTISQDSAKNTVSLQMNNLKPEDTAIYYCAADFAHSFLLSVHSGAGQYSYWGQGTQVTVSS
For B1, the Kd was 38 ± 5 nM.
